Test results from US20260146103A1 (J DAVID GLADSTONE INSTITUTES A TESTAMENTARY TRUST …, published 2026).

How the values were obtained:
[1] = target: T1, P2 peptide (YSMKETTMKIIPFNRLTIG); test: solid phase ELISA, 30 µM P2 peptide coated
T1 peptide: YSMKETTMKIIPFNRLTIG
Method: Based on the fibrinogen peptide profiling (FIG. 8), 15mers were selected to carry out individual peptide binding validation using solid phase ELISA. High purity 15mers were synthesized (Genemed) and then each were diluted at 30 μM in 20 mM HEPES buffer, coated in separate wells and dried overnight. Antibody G was incubated on peptide coated wells for 2 hours at 37° C., at a concentration of 25 or 50 μg/mL.

fibrinogen = target: T2, fibrinogen (UniProt P02671 20-629; P02675 31-491; P02679 27-437, limits assumed); test: solid phase ELISA, 25 µg/mL IgG-depleted fibrinogen coated, 12-point 3-fold dilution
T2 construct: also called IgG-depleted fibrinogen
T2 sequence (looked up) 1: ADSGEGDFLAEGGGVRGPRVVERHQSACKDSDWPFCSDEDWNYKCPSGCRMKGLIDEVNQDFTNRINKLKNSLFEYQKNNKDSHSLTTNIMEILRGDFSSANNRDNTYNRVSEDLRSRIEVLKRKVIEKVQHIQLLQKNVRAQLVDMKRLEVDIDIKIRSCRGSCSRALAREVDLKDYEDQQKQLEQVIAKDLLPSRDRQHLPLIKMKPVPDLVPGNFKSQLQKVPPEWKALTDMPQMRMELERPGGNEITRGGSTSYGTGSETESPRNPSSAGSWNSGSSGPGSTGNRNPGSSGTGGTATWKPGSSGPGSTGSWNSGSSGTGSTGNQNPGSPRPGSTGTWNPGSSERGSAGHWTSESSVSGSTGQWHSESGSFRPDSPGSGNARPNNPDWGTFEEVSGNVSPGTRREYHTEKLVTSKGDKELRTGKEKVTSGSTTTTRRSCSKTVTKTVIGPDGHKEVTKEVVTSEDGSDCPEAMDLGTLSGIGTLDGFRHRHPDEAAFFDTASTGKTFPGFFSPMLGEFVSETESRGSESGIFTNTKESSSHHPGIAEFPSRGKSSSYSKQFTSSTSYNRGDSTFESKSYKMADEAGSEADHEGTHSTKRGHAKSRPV
T2 sequence (looked up) 2: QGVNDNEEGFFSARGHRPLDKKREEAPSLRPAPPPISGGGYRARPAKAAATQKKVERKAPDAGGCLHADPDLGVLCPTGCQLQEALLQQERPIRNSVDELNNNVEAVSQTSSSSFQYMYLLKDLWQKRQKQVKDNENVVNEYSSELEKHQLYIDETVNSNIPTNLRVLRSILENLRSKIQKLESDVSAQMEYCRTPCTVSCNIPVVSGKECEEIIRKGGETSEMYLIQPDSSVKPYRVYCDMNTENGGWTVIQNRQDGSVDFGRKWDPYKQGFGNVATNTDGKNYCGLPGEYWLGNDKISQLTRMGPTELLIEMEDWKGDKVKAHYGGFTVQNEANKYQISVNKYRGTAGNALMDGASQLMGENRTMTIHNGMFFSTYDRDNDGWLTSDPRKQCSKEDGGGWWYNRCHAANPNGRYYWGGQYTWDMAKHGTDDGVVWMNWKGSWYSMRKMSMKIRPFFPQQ
T2 sequence (looked up) 3: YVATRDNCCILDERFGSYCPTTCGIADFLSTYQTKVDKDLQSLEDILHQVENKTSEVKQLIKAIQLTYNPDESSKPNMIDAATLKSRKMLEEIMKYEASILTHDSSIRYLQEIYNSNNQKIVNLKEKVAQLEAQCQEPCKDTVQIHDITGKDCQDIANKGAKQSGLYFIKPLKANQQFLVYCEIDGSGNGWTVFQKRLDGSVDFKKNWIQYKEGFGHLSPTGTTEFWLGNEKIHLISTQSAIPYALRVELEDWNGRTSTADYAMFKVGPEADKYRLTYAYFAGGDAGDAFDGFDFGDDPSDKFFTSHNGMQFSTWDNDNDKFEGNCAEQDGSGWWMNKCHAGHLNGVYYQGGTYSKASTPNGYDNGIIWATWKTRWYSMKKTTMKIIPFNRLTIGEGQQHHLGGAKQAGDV
Method: (§1) Solid phase ELISA was used to assess whether Antibody G binds to fibrinogen and fibrin separately. Antibody G was incubated for 2 hours at 37° C. on 25 μg/mL IgG-depleted fibrinogen or fibrin in 20 mM HEPES buffer, pH7.2, coated and dried overnight in high protein-binding ELISA plates.

[2] = target: FIBG 331-345 peptide (human) (UniProt P02679); test: solid phase ELISA, 30 µM FIBG331-345 peptide coated
fibrin = target: T3, fibrin (UniProt P02671 36-629; P02675 45-491; P02679 27-437); test: solid phase ELISA, 25 µg/mL IgG-depleted fibrin coated, 12-point 3-fold dilution
T3 construct: also called IgG-depleted fibrin; fibrin networks
T3 sequence (looked up) 1: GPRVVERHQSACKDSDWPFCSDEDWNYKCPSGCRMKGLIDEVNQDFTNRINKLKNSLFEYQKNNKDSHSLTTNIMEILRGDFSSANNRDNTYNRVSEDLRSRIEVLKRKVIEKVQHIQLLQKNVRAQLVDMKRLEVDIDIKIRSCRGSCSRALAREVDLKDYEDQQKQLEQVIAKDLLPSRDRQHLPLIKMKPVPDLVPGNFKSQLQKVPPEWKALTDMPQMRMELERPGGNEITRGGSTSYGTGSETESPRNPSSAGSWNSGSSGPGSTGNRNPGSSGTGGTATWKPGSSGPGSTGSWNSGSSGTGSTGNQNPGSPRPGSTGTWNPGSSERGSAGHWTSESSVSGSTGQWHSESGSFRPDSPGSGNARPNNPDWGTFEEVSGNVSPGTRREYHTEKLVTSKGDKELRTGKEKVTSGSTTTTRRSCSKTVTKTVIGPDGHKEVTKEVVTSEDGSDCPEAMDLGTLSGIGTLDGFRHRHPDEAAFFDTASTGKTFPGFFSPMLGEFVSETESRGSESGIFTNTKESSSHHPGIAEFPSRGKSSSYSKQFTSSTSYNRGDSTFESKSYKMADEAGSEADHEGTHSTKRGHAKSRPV
T3 sequence (looked up) 2: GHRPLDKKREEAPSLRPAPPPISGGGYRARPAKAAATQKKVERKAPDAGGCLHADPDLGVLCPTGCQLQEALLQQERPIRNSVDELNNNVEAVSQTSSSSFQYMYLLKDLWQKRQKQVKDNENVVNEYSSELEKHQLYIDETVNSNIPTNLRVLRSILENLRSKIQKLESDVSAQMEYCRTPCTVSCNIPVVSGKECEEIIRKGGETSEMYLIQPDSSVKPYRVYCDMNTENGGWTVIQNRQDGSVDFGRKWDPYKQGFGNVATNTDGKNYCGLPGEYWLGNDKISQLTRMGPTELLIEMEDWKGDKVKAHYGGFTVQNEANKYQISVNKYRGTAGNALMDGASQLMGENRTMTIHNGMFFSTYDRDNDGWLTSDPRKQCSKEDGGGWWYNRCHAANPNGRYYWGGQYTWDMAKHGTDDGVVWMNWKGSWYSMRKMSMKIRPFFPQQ
T3 sequence (looked up) 3: T2 sequence (looked up) 3
Method: as §1
Solid phase ELISA was used to assess murine Antibody G binding to fibrin. Antibody G was incubated for 2 hours at 37° C. on 25 μg/mL IgG-depleted fibrin in 20 mM HEPES buffer, pH7.2, coated and dried overnight in high protein-binding ELISA plates.

B1: Antibody G (45-C1C3) (antibody, V domains shown)
VH: EVQLVESGGGAVQPGRSLRLSCAASGVSFSNIGMHWVRQAPGKGLEWVALISSDGRHTHYADSVKGRFTISRDNSENTLYLQINGLRADDTAVYYCAKGLDTRARYMGKFYTFDYWGQGTLVTVSS
VL: DIQLTQSPSSLSASVGDRVTITCRASQNIGVNLNWYQQRPGKGPKLLVSSTFSLQSGVPSRFSASGAGTNFTLTISSLQPEDYVTYYCQQSYSSPFTFGPGTKVDIK
notes: also called mAb G; Ab G
B1 gave a Kd [1] of 11800 nM, a Kd (fibrinogen) of 660 nM and a Kd [2] of 360 nM. It also gave a Kd (fibrin) of 160 nM.

B2: murine Antibody G (mu-AbG) (antibody, mouse IgG2a, kappa, V domains shown)
VH: B1 VH
VL: DIQLTQSPSSLSASVGDRVTITCRASQNIGVNLNWYQQRPGKGPKLLVSSTFSLQSGVPSRFSASGAGTNFTLTISSLQPEDYVTYYCQQSYSSPFTFGPGTKVDIKR
notes: Variable domains of Antibody G with mouse IgG2a heavy and mouse kappa light constant regions; also called murine mAb G
B2 gave a Kd (fibrin) of 40 nM.
